Our source for the percent decrease of binding in 10 mM EDTA values is publication doi:10.1101/2023.04.03.535215.

The target of the assay is SARS-CoV-2 S protein receptor-binding domain (SARS-CoV-2) (UniProt P0DTC2). As to the kind of experiment: ELISA.

Take “Native human surfactant protein A (from UniProt Q8IWL2 21-248) (natural protein)”: the percent decrease of binding in 10 mM EDTA amounted to 59%.
